Assay results as given in PMC5435865, “A biochemical framework for eIF4E-dependent mRNA export and nuclear recycling of the export machinery” (RNA, 2017).

Target: T1, ^15N-labeled human eIF4E (human, UniProt P06730 1-217)
T1 construct: human eukaryotic translation initiation factor eIF4E, in pET-15b; Uniformly ^15N-labeled; also called cap-free eIF4E; source: overexpressed and purified as described in Volpon et al. (2016)
Experiment: NMR titration; ^1H–^15N HSQC of ~40 µM ^15N-labeled cap-free eIF4E, unlabeled LRP10A added to ratio 1:4; 20°C, 50 mM sodium phosphate pH 7.3, 100 mM NaCl, 1 mM DTT, 7% D2O
Conditions: both partners purified

T1 sequence (P06730 whole entry): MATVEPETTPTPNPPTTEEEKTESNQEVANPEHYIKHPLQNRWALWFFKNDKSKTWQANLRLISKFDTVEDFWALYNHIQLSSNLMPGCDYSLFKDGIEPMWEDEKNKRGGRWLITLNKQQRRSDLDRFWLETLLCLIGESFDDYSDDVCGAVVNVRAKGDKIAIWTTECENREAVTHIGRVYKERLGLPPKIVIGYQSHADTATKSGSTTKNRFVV

B1: synthetic peptide LRP10A (N-Ac-EGFPIRPHYFWPLLVGRRKEK-NH2) (peptide)
peptide: Ac-EGFPIRPHYFWPLLVGRRKEK-NH2
notes: human LRPPRC, residues 433-453 (helix 10A); source: synthetic peptide, bought: Biomatic Corporation
- binding result: binds
